# Reference: the nanobody polyreactivity screen of Harvey et al. (2022)
# Test: yeast display, Sf9 membrane polyspecificity reagent, FACS + sequencing; frameworks hold sequencing errors
# Procedure, shortened: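 Nanobodies from a synthetic yeast display library (Saccharomyces cerevisiae BJ5465), induced 36–48 hours with galactose, were stained 1 hour at 4 °C with 10% biotinylated, detergent-solubilized Sf9 membrane reagent, enriched on streptavidin microbeads, then FACS-sorted. Anti-HA (expression) and streptavidin (reagent binding) fluorescence set low and high (top ~1%) gates. Polyreactivity labels come from the gate of origin. Genes were colony-PCR amplified, MiSeq 2 × 250 sequenced and filtered by CDR length.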
row,Sequence,polyreactivity (PSR sort gate)
1,QVQLVESGGGLVQAGGSLSLSCAASGFIFHFNAMGWYIQAPGKEREVVAAISRTGGTTYYADSVKGRFTLSRDNAKNTVYLQMNSLKPEVTAVYYCAAYSTYGQHYDYWGQGTQVTVSS,high polyreactivity
2,QVQLVESGGGIVPAGGSLRLSCAASGLIFKTYTMGWSRQAPGKEREFVAAITTSGGSTYYADSVKGRFTISRDNAKNTVYLQMNSLKPEDTAVYSCGAVWWKSFQGSSYRMNYWGQGTQVTVSS,high polyreactivity
3,QVQLQECGGGLVQAGRSLRLSCAASGTFSNSVKWLYCQAPGKEREFVATIGVGGSTNYADSVKGRFTISRDNAKYTVYLQMNSLKPEDTGVYHCAGYGAASNFHYDRGQGTQVTVSS,low polyreactivity
4,QVQLVESGGGLVQAGGSLRLSCAASGLIFVRYAMGWYRQAPGKERELVATITWSGGTTYADSVKGRFTISRDNGKNTVYLQMNSLKPEDTEVYDCAVEWPAWTDSDYPVGGHAFGYWGQVTQVTVSS,low polyreactivity
5,QVQLVDSVGGLVQAGGSLRLSCAASGFTFWYYAMGWYRQAPGKERELVAAISSGGSTYYADSVKGRFTISRDNAKNTVYLQMNSLKPEDTAVYYCAARIGARGRGGKDRVYYWGQGTQVTVSS,high polyreactivity
6,QVQLVESGGGLVQAGGSLRLSCAASGRTFVLYTMGWYRQAPGKERELLAVGSTYYADSVKGRFTISRDNAKNTVYLQMNSLKPEDTAVYYCAVDLYWSYFNGALGYRYYYWGQGTQVTVSS,high polyreactivity
7,QVQLVESGGGLVQAGGSLRLSCAASVRIFWPYAMGWYRQAPGKERELVAAITLSGGSTYYADSVKGRFTISRDNAKNTVYLQKNCMKPVETAVYYSAGDHKRTWGGDQGKSHGYWGQGTKVTVSS,low polyreactivity
8,QVQLVESGGGLVQAGGSLRLSCAASGSILGYYAMGWYRQAPGKERELVAAISWSGGRTYYADSVKGRFTISRDNAKNTVYLQMNSLKPEDTAVYYCNARWRSGPRAYDYWGQGTQVTVSS,high polyreactivity
9,QVQLVESGGGLVQAGGSLRLSCAASGIIFDGNAMGWYRQAPGKERELVAAISSRGSRTYYADSVKGRFTISRDNAKNTVYLQMNSLKPEDTAVYSCNAGYVFRSYGYDPWGQGTQVTVSS,high polyreactivity
10,QVHLVESGGGLVQAGGSLRLSCAASGFTFLDNAMGWYRQAPGKERELVAAISGIGGSTSYADSVKGRFTISRDNAKNTVYLQMNSLKPEDTAVYYCATRWKTVGRDTIFAYDYWGQGTQVTVSS,low polyreactivity
11,QVQLVESGGGLVQAGGSLRLSCAASGSTFPKNAMGWYRQAPGKERELVAAINTGGSTYYADSVKGRFTISLDNAKYTVYLQMNSLKPEDTAVYYCAARDNYHRDVGHPYDYWGQGTQVTVSS,low polyreactivity
12,QVQLVESGGGLVQAGGSLRLSCAASGYTFDYYAMGWYRQAPGKERELVAAISGSGSRTYYADSVKGRFTISRDNAKNTVYFQMNSLKPEDTAVYYCAAEYYYSDAGNYWGQGTQVTVSS,high polyreactivity
13,QVQLVESGGGLVQAGGSLRLSCAASGFIFDQNAMGWYRQAPGKERELVAAISKRGGSTYYADSVKGRFTISRDNAKNTVYLQMNSLKPEDTAVYYCATRSWGPYYYGYNHWGQGTQETVSS,high polyreactivity
14,QVQIVESGGGLVQAGGSLRLSCAASGGTFYLYAKGWYRQAPGKERELVAAITTSGGSTYYADSVKGRFTISRDHAKNTVYLQMNSLKPEDTAVYYCNKDLSSTKFDYWGQGTQVTVSS,low polyreactivity
15,QVQLVESAGGLVQAGGSLSLSCAASGYTYWYAMGWYRQAPGKERELVAAIDSGVTRTYYADSVKGRFTISRDNAKNTVYLQMNSLKPEDTAVYYCAAGLSTDYGYWGQGTQVTVSS,low polyreactivity
16,QVQLVESGGGLVQAGGSLRLSCAASGIIFGYNAMGWYRQAPGKERELVAAINQDGSSTYYADSVKGRFTISRDNAKNTVYLQMNSLKPEDTAVYYCNARGVPRQDARMGYWGQGTQVTVSS,low polyreactivity
